Test results published in patent publication US20120301394A1 (published 2012).

T1: Recombinant human MMR (R&D systems) (human, UniProt P22897 19-1383)
T1 construct: Bought protein (R&D Systems #2534) coated on ELISA plates; also called hMMR; MRC1
T1 sequence: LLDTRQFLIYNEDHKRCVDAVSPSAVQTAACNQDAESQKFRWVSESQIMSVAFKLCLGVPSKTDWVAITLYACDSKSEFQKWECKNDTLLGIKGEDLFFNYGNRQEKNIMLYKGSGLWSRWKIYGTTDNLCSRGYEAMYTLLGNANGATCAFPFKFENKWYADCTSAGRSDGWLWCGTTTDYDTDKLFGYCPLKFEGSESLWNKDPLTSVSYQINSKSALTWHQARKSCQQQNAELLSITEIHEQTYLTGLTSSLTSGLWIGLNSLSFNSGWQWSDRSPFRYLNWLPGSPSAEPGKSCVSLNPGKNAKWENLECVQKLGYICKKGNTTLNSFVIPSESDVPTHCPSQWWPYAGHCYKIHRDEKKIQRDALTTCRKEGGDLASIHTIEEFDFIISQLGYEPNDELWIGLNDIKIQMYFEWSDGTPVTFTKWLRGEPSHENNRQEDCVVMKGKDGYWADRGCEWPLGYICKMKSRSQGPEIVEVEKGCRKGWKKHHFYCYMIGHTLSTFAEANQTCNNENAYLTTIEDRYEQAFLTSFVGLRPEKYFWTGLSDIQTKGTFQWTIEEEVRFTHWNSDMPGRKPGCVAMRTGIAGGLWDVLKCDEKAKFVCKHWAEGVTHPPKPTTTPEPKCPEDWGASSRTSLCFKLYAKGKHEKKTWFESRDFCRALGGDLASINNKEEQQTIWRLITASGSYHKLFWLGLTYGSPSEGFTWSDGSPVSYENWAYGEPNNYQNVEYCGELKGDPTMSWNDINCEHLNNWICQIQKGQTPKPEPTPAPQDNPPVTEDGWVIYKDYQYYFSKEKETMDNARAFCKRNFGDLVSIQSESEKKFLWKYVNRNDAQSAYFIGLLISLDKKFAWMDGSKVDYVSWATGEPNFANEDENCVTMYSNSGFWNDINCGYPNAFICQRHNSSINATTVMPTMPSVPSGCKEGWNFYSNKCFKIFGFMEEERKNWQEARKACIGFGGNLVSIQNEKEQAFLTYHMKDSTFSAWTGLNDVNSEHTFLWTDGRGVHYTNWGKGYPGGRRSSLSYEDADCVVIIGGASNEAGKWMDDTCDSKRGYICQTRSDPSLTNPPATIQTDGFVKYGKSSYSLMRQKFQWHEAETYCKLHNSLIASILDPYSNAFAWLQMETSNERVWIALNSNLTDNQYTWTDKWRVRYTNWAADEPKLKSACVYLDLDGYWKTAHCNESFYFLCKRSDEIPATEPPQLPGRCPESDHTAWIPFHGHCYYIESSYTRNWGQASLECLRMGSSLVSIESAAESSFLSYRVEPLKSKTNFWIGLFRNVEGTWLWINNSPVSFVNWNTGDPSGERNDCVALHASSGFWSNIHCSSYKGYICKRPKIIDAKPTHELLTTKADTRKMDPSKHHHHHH

T2: Recombinant mouse MMR (R&D systems) (mouse, UniProt Q61830 20-1388)
T2 construct: Bought recombinant extracellular portion of mouse MMR with a C-terminal His tag; It was immobilized on the CM5 chip for SPR and coated on plates for PE-ELISA; The SPR methods say only 'MMR'; also called mMMR; recombinant MMR
T2 sequence: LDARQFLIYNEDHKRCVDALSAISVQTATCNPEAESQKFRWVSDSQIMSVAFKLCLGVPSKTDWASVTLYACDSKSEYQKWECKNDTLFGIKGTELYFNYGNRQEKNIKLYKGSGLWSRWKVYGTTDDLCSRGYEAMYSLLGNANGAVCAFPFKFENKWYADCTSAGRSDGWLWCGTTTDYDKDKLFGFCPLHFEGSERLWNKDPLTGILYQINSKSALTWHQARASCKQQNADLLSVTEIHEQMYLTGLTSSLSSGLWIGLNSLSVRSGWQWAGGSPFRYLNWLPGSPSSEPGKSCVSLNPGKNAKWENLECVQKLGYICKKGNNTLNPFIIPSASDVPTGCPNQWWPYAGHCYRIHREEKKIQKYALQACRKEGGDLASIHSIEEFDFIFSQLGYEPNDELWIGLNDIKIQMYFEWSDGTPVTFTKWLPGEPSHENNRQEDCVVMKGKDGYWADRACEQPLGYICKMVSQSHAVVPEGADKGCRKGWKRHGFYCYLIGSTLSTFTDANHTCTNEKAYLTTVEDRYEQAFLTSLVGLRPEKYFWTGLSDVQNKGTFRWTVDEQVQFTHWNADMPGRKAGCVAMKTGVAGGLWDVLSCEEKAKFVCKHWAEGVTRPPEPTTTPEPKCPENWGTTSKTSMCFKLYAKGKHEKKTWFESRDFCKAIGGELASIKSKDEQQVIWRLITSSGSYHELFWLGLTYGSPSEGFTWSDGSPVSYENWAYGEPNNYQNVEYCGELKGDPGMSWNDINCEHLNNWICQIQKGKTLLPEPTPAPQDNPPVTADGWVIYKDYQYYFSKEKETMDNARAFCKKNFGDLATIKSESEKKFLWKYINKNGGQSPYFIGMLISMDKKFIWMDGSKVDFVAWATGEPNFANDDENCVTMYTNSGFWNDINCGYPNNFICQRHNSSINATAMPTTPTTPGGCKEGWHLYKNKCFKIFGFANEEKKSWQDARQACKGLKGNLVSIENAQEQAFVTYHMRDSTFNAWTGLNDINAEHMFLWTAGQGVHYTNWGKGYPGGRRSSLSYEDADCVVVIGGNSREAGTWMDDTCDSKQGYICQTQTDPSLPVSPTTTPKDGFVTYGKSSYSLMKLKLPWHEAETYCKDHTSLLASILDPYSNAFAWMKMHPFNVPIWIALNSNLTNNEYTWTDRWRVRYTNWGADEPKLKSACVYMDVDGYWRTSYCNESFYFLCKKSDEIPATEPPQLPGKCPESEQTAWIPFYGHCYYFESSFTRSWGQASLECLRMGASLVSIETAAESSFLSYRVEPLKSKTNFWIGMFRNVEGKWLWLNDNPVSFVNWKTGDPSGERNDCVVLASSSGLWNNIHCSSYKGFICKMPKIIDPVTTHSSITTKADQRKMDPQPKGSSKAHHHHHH


How the values were obtained:
[1] = target: T1, Recombinant human MMR (R&D systems); experiment: PE-ELISA, periplasmic extract on coated human MMR
[2] = target: T2, Recombinant mouse MMR (R&D systems); experiment: PE-ELISA, periplasmic extract on coated mouse MMR
[3] = target: T1, Recombinant human MMR (R&D systems); experiment: PE-ELISA, periplasmic extract on coated human MMR, OD405 at least 3x over milk-blocking proteins

| Binder | binding result [1] | binding result [2] | binding result [3] |
| --- | --- | --- | --- |
| NbhmMMRm19.52 (VHH, Tested as a periplasmic extract in PE-ELISA) VHH: QVQLQESGGGLVQAGGSLRLSCLASGDTFSNYVMAWFRQAPGKEREIVAAIRLSGARYVPDSVKGRFTISRDNAKNAMYLQMTSLKPEDTARYYCAAGHTWGQYAYWGQGTQVTVSS | binds | binds |  |
| NbhmMMRm6.71 (VHH, Tested as a periplasmic extract in PE-ELISA) VHH: QVQLQESGGGLVQAGGSLRLSCAASGGTFDDSVIGWFRQAPGKEREGVSCISSNDGTTHYASPVKGRFTISSDNAKNTVYLQMNSLKPEDTAVYYCAAETPSIGSPCTSASYDYWGQGTQVTVSS | binds | binds |  |
| NbhMMRm10.19 (VHH, Tested as a periplasmic extract in PE-ELISA) VHH: QVQLQESGGGLVQPGGSLKLSCAASGSIFSIKTMGWYRQAPGKQRELVAAITSGGSTNYADSVKGRFTISRDNAKNTVYLQMNSLKPEDTAVYYCNADGVVAWDQPYDNYWGQGTQVTVSS |  |  | binds |
| NbhmMMRm10.79 (VHH, Tested as a periplasmic extract in PE-ELISA) VHH: QVQLQESGGGLVQPGGSLKLSCAASGSIFSIKTMGWYRQAPGKQRELVAAVSSGGSTNYADSVKGRFTISRDNAKNAVYLQMNSLKPEDTAVYYCNADGVVAWDQPYDNYWGQGTQVTVSS | binds | binds |  |
| NbhmMMRm22.84 (VHH, Tested as a periplasmic extract in PE-ELISA) VHH: QVQLQESGGGLVQPGGSLRLSCAASGRTFSNYVNYAMGWFRQFPGKEREFVASISWSSVTTYYADSVKGRFTISRDNAKNTVYLQMNSLKPEDTAVYYCAAHLAQYSDYAYRDPHQFGAWGQGTQVTVSS | binds | binds |  |
| NbhmMMRm14.4 (VHH, Tested as a periplasmic extract in PE-ELISA) VHH: QVQLQESGGGLVQAGDSLRLSCAASGRTFSINYMGWYRQAPGKQRELVAAITSGSGSTNYADSVKGRFTISRDNAKNTMYLQMNSLKPEDTAVYYCNADMDSSLSGGYVDVWGQGTQVTVSS | binds | binds |  |
| NbhmMMRm14.93 (VHH, Tested as a periplasmic extract in PE-ELISA) VHH: QVQLQESGGGLVQAGDSLRLSCAASGRTFSINYMGWYRQAPGKQRELVAAITSGSGSTNYADSVKGRFTISRDNAKKTMYLQMNSLKPEDTAVYYCNADMDSSLSGGYVDVWGQGTQVTVSS | binds | binds |  |
| NbhMMRm1.33 (VHH, Tested as a periplasmic extract in PE-ELISA) VHH: QVQLQESGGGLVQPGGSLRLSCAASGFTLDNYTVAWFRQAPGKEREGVSCISSSGGSTNYADSVKGRFTISRDNSKKSVYLQMNSLKPEDTAIYTCAAERAPPYYSGYYFFDSTCVAASYDYWGQGTQVTVSS |  |  | binds |
| NbhmMMRm15.49 (VHH, Tested as a periplasmic extract in PE-ELISA) VHH: QVQLQESGGGLVQAGGSLRLSCAASGSTFSINNMGWYRQAPGKQRELVAGITGGNTHYADSVKGRFTISRDNAKNTMYLQMNSLKPEDTAVYYCNANWGAYWGQGTQVTVSS | binds | binds |  |
| NbhmMMRm17.72 (VHH, Tested as a periplasmic extract in PE-ELISA) VHH: QVQLQESGGGLVQPGGSLRLSCAASGSIVSINAMGWYRQAPGKQRELVALVTGSGRTNLADSVKGRFTISRDNAKNTVYLQMNSLKPEDTAVYYCNVLVIGPLEGYDYWGQGTQVTVSS | binds | binds |  |
| NbhMMRm5.38 (VHH, Tested as a periplasmic extract in PE-ELISA) VHH: QVQLQESGGGLVQAGGSLRLSCAASGFTDDDYDIGWFRQAPGKEREGVSCISSSDGSTYYADSVKGRFTISSDNAKNTVYLQMNSLKPEDTAVYYCAADFFRWDSGSYYVRGCRHATYDYWGQGTQVTVSS |  |  | binds |
| NbhmMMRm20.52 (VHH, Tested as a periplasmic extract in PE-ELISA) VHH: QVQLQESGGGLVQAGGSLRLSCAASGRIFSAYAMGWFRQAPGKEREFVAAISRSGDSTDYADSVKGRFTISRDSAKNMVYLQMNSLKPEDTALYHCAARTVSAPPSAAWGYGYWGQGTQVTVSS | binds | binds |  |
| NbhMMRm2.15 (VHH, Tested as a periplasmic extract in PE-ELISA) VHH: QVQLQESGGGLVQPGESLRLSCKLSGFTLDYYDIGWFRQAPGKEREGVSCISSIGGSANYADSVKGRFTISRDNVKNTVYLQMNSLKPEDTAIYYCAAEAQTPYNDGDCTRASYDYWGQGIQVTVSS |  |  | binds |
| NbhMMRm12.6 (VHH, Tested as a periplasmic extract in PE-ELISA) VHH: QVQLQESGGGLVQPGGSLRLSCVVSGSFLSINHMGWYRQVSGEQRELVAAITSGGSTNYADSVKGRFTISRDSAKNTVYLQMNSLKPEDTAVYYCNADALTMLPPFDFWGQGTQVTVSS |  |  | binds |
| NbhmMMRm24.31 (VHH, Tested as a periplasmic extract in PE-ELISA) VHH: QVQLQESGGGLVQPGGSLRLSCTATGFTLKNHHIGWLRQAPGKEREGVASINSSGGSTNYADSVQGRFTISRDNAKNTVFLQMNSLKSEDTAVYYCARLRRYYGLNLDPGSYDYWGQGTQVTVSS | binds | binds |  |
| NbhMMRm3.1 (VHH, Tested as a periplasmic extract in PE-ELISA) VHH: QVQLQESGGGLVQPGGSLRLSCAASGFTLDYYAIGWFRQAPGKEREGISCISYKGGSTTYADSVKGRFTISKDNAKNTAYLQMNNLKPEDTGIYYCAAGFVCYNYDYWGPGTQVTVSS |  |  | binds |
| NbhmMMRm3.49 (VHH, Tested as a periplasmic extract in PE-ELISA) VHH: QVQLQESGGGLVQPGGSLRLSCAASGFSLDYYAIGWFRQAPGKEREGISCISYKGGSTTYADSVKGRFTISKDNAKNTAYLQMNSLKPEDTGIYSCAAGFVCYNYDYWGQGTQVTVSS | binds | binds |  |
